The values that follow come from the RNAGym collection of RNA variant scans (doi:10.7554/elife.80360).

B1: Hammerhead Ribozyme (parent)
chain: ACCGGAUGUGCUUUCCGGUCUGAUGAGUCCGUGAGGACGAAACAG

The variants in the data set derive from B1. The experiment in a line: self-cleavage, relative activity (ratio to wild type); higher = more cleavage; co-transcriptional.
Take ACCGGAGGUGCUUUCCGGUAUGAUGAGUCCGUGAGGACGAAACAG [U7G C20A]: the self-cleavage turned out to be 0.359.

Regarding ACCGGAGGUGCUUUCCGGUCUGAUCAGUCCGUGAGGACGAAACAG [U7G G25C], the self-cleavage turned out to be 0.363.

Regarding ACCGGAGGUGCUUUCCGGUCUGAUAAGUCCGUGAGGACGAAACAG [U7G G25A], the self-cleavage worked out at 0.272.

ACCGGAGGUGCUUUCCGGUCUGAUUAGUCCGUGAGGACGAAACAG [U7G G25U]: the self-cleavage turned out to be 0.333.

Regarding ACCGGAUAUGCUUUCCGGUCUGAUGAGUCCGUGAGGACGAAACGG [G8A A44G], the self-cleavage came to 1.41.

Consider ACCGGAUAUGCUUUCCGGUCUGAUGAGUCCGUGAGGACGAAACUG [G8A A44U], for which the self-cleavage amounted to 0.648.

As to ACCGGAUAUGCUUUCCGGUCUGAUGAGUCCGUGAGGACGAAACCG [G8A A44C], the self-cleavage was determined as 0.508.

Turning to ACCGGAGGUGCUUUCCGGUCUGAUGAGUCCGUGAAGACGAAACAG [U7G G35A], the self-cleavage worked out at 0.654.

As to ACCGGAGGUGCUUUCCGGUCUGAUGAGUCCGUGAUGACGAAACAG [U7G G35U], the self-cleavage came out at 0.911.

Turning to ACCGGAGGUGCUUUCCGGUCUGAUGAGUCCGUGACGACGAAACAG [U7G G35C], the self-cleavage stood at 0.979.

For ACCGGAUAUGCUUUCCGGUCUGAUGAGUCCGUGAGGCCGAAACAG [G8A A37C], the self-cleavage came to 1.06.

On to ACCGGAUAUGCUUUCCGGUCUGAUGAGUCCGUGAGGGCGAAACAG [G8A A37G], for which the self-cleavage is 0.966.

Consider ACCGGAUAUGCUUUCCGGUCUGAUGAGUCCGUGAGGUCGAAACAG [G8A A37U], for which the self-cleavage came to 0.731.

As for ACCGGAGGCGCUUUCCGGUCUGAUGAGUCCGUGAGGACGAAACAG [U7G U9C], the self-cleavage is 1.18.

With ACCGGAGGGGCUUUCCGGUCUGAUGAGUCCGUGAGGACGAAACAG [U7G U9G], the self-cleavage came to 1.35.

For the variant ACCGGAGGAGCUUUCCGGUCUGAUGAGUCCGUGAGGACGAAACAG [U7G U9A], the self-cleavage is 1.19.

In the case of ACCGGAUAUGCUUUCCGGUCUGAUGAGUCCGUGAGGACGAAUCAG [G8A A42U], the self-cleavage came to 0.297.

With ACCGGAUAUGCUUUCCGGUCUGAUGAGUCCGUGAGGACGAAGCAG [G8A A42G], the self-cleavage worked out at 0.306.

For ACCGGAUAUGCUUUCCGGUCUGAUGAGUCCGUGAGGACGAACCAG [G8A A42C], the self-cleavage was 0.373.

Regarding ACCGGAGGUGCUUUCCGGCCUGAUGAGUCCGUGAGGACGAAACAG [U7G U19C], the self-cleavage stood at 0.512.

In the case of ACCGGAGGUGCUUUCCGGGCUGAUGAGUCCGUGAGGACGAAACAG [U7G U19G], the self-cleavage was 0.304.

Take ACCGGAGGUGCUUUCCGGACUGAUGAGUCCGUGAGGACGAAACAG [U7G U19A]: the self-cleavage stood at 0.398.

Regarding ACCGGAGGUGCUUUCCGGUCUGAUGAGGCCGUGAGGACGAAACAG [U7G U28G], the self-cleavage was 0.502.

As for ACCGGAGGUGCUUUCCGGUCUGAUGAGACCGUGAGGACGAAACAG [U7G U28A], the self-cleavage is 0.991.

Turning to ACCGGAGGUGCUUUCCGGUCUGAUGAGCCCGUGAGGACGAAACAG [U7G U28C], the self-cleavage was 1.36.

Regarding ACCGGAGAUGCUUUCCGGUCUGAUGAGUCCGUGAGGACGAAACAG [U7G G8A], the self-cleavage stood at 1.29.

Consider ACCGGAGUUGCUUUCCGGUCUGAUGAGUCCGUGAGGACGAAACAG [U7G G8U], for which the self-cleavage was found to be 1.36.

Turning to ACCGGAGCUGCUUUCCGGUCUGAUGAGUCCGUGAGGACGAAACAG [U7G G8C], the self-cleavage came to 1.37.

In the case of ACCGGAGGUGCUUUCCGCUCUGAUGAGUCCGUGAGGACGAAACAG [U7G G18C], the self-cleavage came to 0.464.

Regarding ACCGGAGGUGCUUUCCGAUCUGAUGAGUCCGUGAGGACGAAACAG [U7G G18A], the self-cleavage was 0.807.

As to ACCGGAGGUGCUUUCCGUUCUGAUGAGUCCGUGAGGACGAAACAG [U7G G18U], the self-cleavage is 0.46.

For ACCGGAUAUGCUUUCCGGUCUGAUGAGUCCGUGAGGACGGAACAG [G8A A40G], the self-cleavage was 0.235.

On to ACCGGAUAUGCUUUCCGGUCUGAUGAGUCCGUGAGGACGCAACAG [G8A A40C], for which the self-cleavage stood at 0.683.

For the variant ACCGGAUAUGCUUUCCGGUCUGAUGAGUCCGUGAGGACGUAACAG [G8A A40U], the self-cleavage worked out at 0.343.

Turning to ACCGGAGGUGCUUUCCGGUCUGAUGAAUCCGUGAGGACGAAACAG [U7G G27A], the self-cleavage was 0.81.

ACCGGAGGUGCUUUCCGGUCUGAUGAUUCCGUGAGGACGAAACAG [U7G G27U]: the self-cleavage is 0.511.

Consider ACCGGAGGUGCUUUCCGGUCUGAUGACUCCGUGAGGACGAAACAG [U7G G27C], for which the self-cleavage was 0.763.

Regarding ACCGGAUAUGGUUUCCGGUCUGAUGAGUCCGUGAGGACGAAACAG [G8A C11G], the self-cleavage was found to be 1.18.

ACCGGAUAUGAUUUCCGGUCUGAUGAGUCCGUGAGGACGAAACAG [G8A C11A]: the self-cleavage was determined as 1.28.

Turning to ACCGGAGGUGCUUUCCGGUCUGAUGAGUCCGGGAGGACGAAACAG [U7G U32G], the self-cleavage is 0.796.

Take ACCGGAGGUGCUUUCCGGUCUGAUGAGUCCGAGAGGACGAAACAG [U7G U32A]: the self-cleavage stood at 1.49.

Take ACCGGAGGUGCUUUCCGGUCUGAUGAGUCCGCGAGGACGAAACAG [U7G U32C]: the self-cleavage was found to be 1.03.

For ACCGGAGGUGCUUACCGGUCUGAUGAGUCCGUGAGGACGAAACAG [U7G U14A], the self-cleavage was 1.46.

For the variant ACCGGAGGUGCUUCCCGGUCUGAUGAGUCCGUGAGGACGAAACAG [U7G U14C], the self-cleavage turned out to be 0.944.

For ACCGGAGGUGCUUGCCGGUCUGAUGAGUCCGUGAGGACGAAACAG [U7G U14G], the self-cleavage came out at 0.831.

ACCGGAUAUGCUUUCCGGUCUGCUGAGUCCGUGAGGACGAAACAG [G8A A23C]: the self-cleavage was determined as 0.396.

As to ACCGGAUAUGCUUUCCGGUCUGGUGAGUCCGUGAGGACGAAACAG [G8A A23G], the self-cleavage was 0.325.

Turning to ACCGGAUAUGCUUUCCGGUCUGUUGAGUCCGUGAGGACGAAACAG [G8A A23U], the self-cleavage was determined as 0.383.

For ACCGGAGGUGCUUUCCGGUCUGAUGAGUCCAUGAGGACGAAACAG [U7G G31A], the self-cleavage turned out to be 1.25.

As to ACCGGAGGUGCUUUCCGGUCUGAUGAGUCCUUGAGGACGAAACAG [U7G G31U], the self-cleavage came out at 1.18.

As for ACCGGAGGUGCUUUCCGGUCUGAUGAGUCCCUGAGGACGAAACAG [U7G G31C], the self-cleavage turned out to be 0.968.

Consider ACCGGAGGUGCUUUCCGGUCUGACGAGUCCGUGAGGACGAAACAG [U7G U24C], for which the self-cleavage was found to be 1.23.

On to ACCGGAGGUGCUUUCCGGUCUGAGGAGUCCGUGAGGACGAAACAG [U7G U24G], for which the self-cleavage is 1.92.

Regarding ACCGGAGGUGCUUUCCGGUCUGAAGAGUCCGUGAGGACGAAACAG [U7G U24A], the self-cleavage stood at 1.4.

In the case of ACCGGAGGUGCUUUCCGGUCUGAUGAGUUCGUGAGGACGAAACAG [U7G C29U], the self-cleavage came to 1.02.

ACCGGAGGUGCUUUCCGGUCUGAUGAGUGCGUGAGGACGAAACAG [U7G C29G]: the self-cleavage was found to be 0.488.

Take ACCGGAGGUGCUUUCCGGUCUGAUGAGUACGUGAGGACGAAACAG [U7G C29A]: the self-cleavage was 0.642.
